Three substances from patent US20140206011A1 can be followed below.

For experiment [1], the target named is E-cadherin (human) (UniProt P12830). As to the kind of experiment: cell-based or functional assay.
Experiment [2] addresses FadA on wild-type Fusobacterium nucleatum 12230 (Fusobacterium nucleatum). As to the kind of experiment: cell-based or functional assay.

Chain of UniProt P12830 (P12830 155-882): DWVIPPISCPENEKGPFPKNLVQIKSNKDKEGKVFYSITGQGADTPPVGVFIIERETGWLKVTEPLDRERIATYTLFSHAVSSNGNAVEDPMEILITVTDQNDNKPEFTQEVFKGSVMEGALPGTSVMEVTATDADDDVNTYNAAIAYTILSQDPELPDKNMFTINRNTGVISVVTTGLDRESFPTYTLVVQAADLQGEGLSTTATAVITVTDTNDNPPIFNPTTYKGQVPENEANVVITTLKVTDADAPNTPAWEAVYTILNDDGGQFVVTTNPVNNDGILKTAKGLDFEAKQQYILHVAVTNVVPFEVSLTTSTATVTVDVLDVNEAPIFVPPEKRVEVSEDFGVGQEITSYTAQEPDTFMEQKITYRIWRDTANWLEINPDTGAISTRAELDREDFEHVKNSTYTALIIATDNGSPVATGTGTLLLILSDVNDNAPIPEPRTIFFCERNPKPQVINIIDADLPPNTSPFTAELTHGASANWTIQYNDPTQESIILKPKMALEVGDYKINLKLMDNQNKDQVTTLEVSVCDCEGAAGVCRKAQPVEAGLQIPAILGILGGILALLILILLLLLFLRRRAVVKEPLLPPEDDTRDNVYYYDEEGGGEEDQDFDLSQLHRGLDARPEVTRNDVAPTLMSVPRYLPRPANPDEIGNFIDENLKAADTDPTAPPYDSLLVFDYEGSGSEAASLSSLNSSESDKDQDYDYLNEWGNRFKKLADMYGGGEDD

In experiment [1], “FadA on wild-type Fusobacterium nucleatum 12230” had an attachment level of Fn to HCT116 (percent bacteria recovered relative to inoculum), FIG. 3C without inhibition of 4.4%; an attachment level of Fn to HCT116 without inhibition, FIG. 4B of 6.3%; an attachment level of Fn to HCT116 without inhibition, FIG. 4C of 5.9%; an invasion level of Fn into HCT116 (percent bacteria recovered relative to inoculum), FIG. 3C without inhibition of 1.3%. In addition, in experiment [1], the invasion level of Fn into HCT116 without inhibition, FIG. 4B worked out at 1.6% and the invasion level of Fn into HCT116 without inhibition, FIG. 4C amounted to 1.4%.

In the case of FadAc, in experiment [1], the HCT116 cell growth (cell proliferation assay) worked out at 1 mg/mL and the HCT116 xenograft tumor growth in nude mice came out at 20%.

As to “GST-EC5 fusion protein (from UniProt P12830 594-697)”, the inhibition of Fn attachment and invasion of HCT116 in experiment [2] turned out to be 0.1 µM.
